Experimental data reported in patent US20150368316A1 (ALBERT EINSTEIN COLLEGE OF MEDICINE OF YESHIVA UNIVERSITY, published 2015).
pKd: −log10 of the molar value.

Key:
[1] = target: human PD-L2 on mature human monocyte-derived dendritic cells (human) (UniProt Q9BQ51); test: flow cytometry, Kd estimated from MFI of Ig fusion protein binding to TNF-α-matured human monocyte-derived dendritic cells; the cells express both PD-L1 and PD-L2, so the value is an apparent avidity not resolved between the two ligands [panel B, table]
human PD-L2 on mature human monocyte-derived dendritic cells (human), sequence (Q9BQ51 20-273): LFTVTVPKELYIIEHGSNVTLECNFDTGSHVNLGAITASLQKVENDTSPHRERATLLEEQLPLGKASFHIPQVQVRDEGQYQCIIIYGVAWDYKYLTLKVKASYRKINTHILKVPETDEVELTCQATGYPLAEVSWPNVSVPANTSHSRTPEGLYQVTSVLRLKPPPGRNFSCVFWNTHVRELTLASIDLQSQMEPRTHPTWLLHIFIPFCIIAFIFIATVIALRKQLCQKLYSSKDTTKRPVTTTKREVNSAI

[2] = target: human PD-L1 on mature human monocyte-derived dendritic cells (human) (UniProt Q9NZQ7); test: as above
human PD-L1 on mature human monocyte-derived dendritic cells (human), sequence (Q9NZQ7 19-290): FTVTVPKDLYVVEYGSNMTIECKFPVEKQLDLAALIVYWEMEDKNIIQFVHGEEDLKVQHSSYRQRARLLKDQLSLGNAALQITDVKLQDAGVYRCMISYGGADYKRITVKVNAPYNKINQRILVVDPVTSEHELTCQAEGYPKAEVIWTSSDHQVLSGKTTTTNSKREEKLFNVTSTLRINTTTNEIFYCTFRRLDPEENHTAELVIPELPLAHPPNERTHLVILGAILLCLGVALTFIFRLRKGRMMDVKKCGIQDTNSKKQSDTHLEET

- pKd [1]: 6.49
- pKd [2]: 6.49
Substance: PD-1 Ig (Fc fusion)
